Reference: patent US20220306695A1, “COMPSTATIN ANALOGUES AND THEIR MEDICAL USES” (priority 2019, published 2022)
Positions of bridges follow the written chain, without caps; N, C: chain ends. Non-standard residues stand in square brackets, D forms with d. Residues, ends and D or L forms follow the SMILES beside them. Trp(1-Me) = Cn1cc(C[C@H](N)C(=O)O)c2ccccc21; β3hI = CC[C@H](C)[C@H](N)CC(=O)O; Nle = CCCC[C@H](N)C(=O)O; Sar = CNCC(=O)O

Experiments:
in vivo = assay: in vivo; parameters: species or system Cynomolgus monkeys (Macaca fascicularis); settings: male, cynomolgus monkey, sc, 1840 nmol/kg, t½
How it was run: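 Healthy male cynomolgus monkeys dosed once subcutaneously at 1840 nmol/kg in 20 mM phosphate pH 7.5 with mannitol. Serum sampled pre-dose to 120 h and total drug measured by SPE and LC-MS/MS. Terminal half-life calculated non-compartmentally as ln(2)/λz from the terminal log-linear phase.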

[1] = Solubility test at 10 mg/mL (visual inspection and light scattering); format: physicochemical
[2] = system: classical complement pathway; assay: In vitro haemolysis assay (inhibition of classical complement pathway); format: cell-based, human; settings: Table 3; human serum, sensitized sheep red blood cells; read-out: IC50[nM], in vitro analysis of inhibition of hemolysis
How it was run: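 Serially diluted compound (9 points) was preincubated 15 min at room temperature with diluted human serum, titrated per batch to give 70-90% maximal haemolysis, in Tris/casein buffer pH 7.4 with Mg2+/Ca2+. Antibody-sensitized sheep erythrocytes were then added for 30 min at 37° C, and the reaction was stopped with EDTA. Haemolysis was read at A405, with IC50 from 4PL fit.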

[3] = system: alternative complement pathway; assay: Ex vivo alternative pathway complement activity (WIESLAB kit) in serum of dosed non-human primates; parameters: species or system Cynomolgus monkeys (Macaca fascicularis); settings: NHP, subcutaneous 1840 nmol/kg, FIG. 1
Procedure: FIG. 1(a-g): Normalized “ex vivo” activity of the alternative complement pathway over time after administration of a test compound at time 0 to non-human primates. Compounds were given subcutaneously at a dose of 1840 nmol/kg. Complement activity (alternative pathway) was measured using the Wieslab kit. Activity was normalized using the predose (0) sample (set to 100%) and the negative control included in the kit. Normalized activity or average normalized activity for animals and standard deviation is shown.
Healthy male Cynomolgus monkeys (Macaca fascicularis) received single subcutaneous administrations of each test substance. Compounds were formulated in 20 mM phosphate adjusted with NaOH to pH 7.5 and mannitol for isotonicity and dosed at 1840 nmol/kg. Blood was collected from a femoral vein from each animal at the following times: Pre-dose, 1, 2, 4, 8, 24, 48, 72, 96 and 120 h (10 sampling times). Blood was collected into serum separation tubes and allowed to clot at room temperature. The tubes were centrifuged and resulting serum was aliquoted and snap-frozen over dry-ice and stored at nominally −80° C. until analysis. All NHP studies were performed in accordance with animal welfare laws and regulations, including approval of the study by a local ethical review process.
Serum isolated from non-human primates at specific time points after dosing were analyzed for alternative pathway complement activity using the Complement system Alternative Pathway WIESLAB® kit from Svar Life Science (previously Euro diagnostic AB, Sweden) following the manufacturer's protocol. Briefly, serum samples or controls were diluted in buffer and incubated in microtitre strips coated with specific activators of the alternative pathway. The wells were washed and formed C5b-9 was detected using included colorimetric reagents.
Absorbance at 405 nm was measured. The percent activity of the alternative complement pathway was calculated for each animal and timepoint relative to the pre-dose activity (0 hours) of the individual animal with subtraction of the negative control. […]

Human C3 [4] = molecular target: T1, Human C3 (human, UniProt P01024 23-1663); assay: cell-based or functional assay
T1 sequence (P01024 23-1663 limits assumed): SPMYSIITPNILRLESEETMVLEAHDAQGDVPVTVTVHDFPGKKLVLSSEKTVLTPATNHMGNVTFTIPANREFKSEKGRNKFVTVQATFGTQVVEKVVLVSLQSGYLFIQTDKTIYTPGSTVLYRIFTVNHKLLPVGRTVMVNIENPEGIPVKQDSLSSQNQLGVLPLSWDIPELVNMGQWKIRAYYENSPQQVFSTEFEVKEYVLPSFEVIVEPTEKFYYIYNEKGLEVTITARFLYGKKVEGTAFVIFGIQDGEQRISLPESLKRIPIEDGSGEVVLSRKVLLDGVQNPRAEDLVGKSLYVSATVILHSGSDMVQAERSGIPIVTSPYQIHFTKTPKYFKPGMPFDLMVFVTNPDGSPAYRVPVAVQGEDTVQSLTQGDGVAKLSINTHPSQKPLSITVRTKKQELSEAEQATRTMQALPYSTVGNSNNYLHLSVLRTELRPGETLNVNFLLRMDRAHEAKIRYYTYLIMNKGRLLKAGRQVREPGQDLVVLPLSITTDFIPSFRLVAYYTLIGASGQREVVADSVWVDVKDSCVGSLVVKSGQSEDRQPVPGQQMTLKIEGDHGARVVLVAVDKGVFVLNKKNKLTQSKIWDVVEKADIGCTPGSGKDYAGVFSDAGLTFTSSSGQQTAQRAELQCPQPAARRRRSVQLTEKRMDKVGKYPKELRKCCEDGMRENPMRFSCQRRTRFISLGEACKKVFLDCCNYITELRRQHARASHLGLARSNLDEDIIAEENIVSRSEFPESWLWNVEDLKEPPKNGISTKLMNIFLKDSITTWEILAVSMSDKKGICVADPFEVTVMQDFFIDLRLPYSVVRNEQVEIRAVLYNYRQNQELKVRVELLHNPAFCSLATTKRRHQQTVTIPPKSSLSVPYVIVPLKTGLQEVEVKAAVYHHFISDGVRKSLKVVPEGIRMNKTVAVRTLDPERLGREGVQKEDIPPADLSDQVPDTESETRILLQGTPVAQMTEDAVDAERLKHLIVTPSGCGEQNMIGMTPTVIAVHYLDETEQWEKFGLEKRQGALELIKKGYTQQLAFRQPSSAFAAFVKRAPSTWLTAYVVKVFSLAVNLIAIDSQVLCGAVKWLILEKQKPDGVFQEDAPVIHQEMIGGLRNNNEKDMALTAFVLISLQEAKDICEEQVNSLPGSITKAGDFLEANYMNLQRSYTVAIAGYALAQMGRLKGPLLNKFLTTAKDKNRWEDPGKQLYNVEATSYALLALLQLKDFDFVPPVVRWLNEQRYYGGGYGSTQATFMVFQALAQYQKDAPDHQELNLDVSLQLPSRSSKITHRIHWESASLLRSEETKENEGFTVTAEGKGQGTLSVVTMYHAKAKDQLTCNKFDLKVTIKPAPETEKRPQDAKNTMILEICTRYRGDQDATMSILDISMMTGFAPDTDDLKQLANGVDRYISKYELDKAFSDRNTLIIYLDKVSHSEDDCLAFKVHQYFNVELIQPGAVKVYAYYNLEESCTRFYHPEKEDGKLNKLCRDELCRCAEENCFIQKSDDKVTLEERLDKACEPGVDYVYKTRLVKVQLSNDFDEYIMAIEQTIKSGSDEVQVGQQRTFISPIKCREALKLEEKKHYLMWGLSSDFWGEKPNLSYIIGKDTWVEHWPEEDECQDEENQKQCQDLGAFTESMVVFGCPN

Human C3 [5] = molecular target: T1, Human C3; assay: SPR, C3 immobilised
Procedure: Surface plasmon resonance (SPR) was used to characterize peptides with respect to their binding affinity (Kd) for C3. Human C3 (Complement tech cat #A1 13c) was immobilised on individual flow cells of CM5 sensor chips (GE Healthcare) using standard amine coupling to a density of approximately 3000 resonance units (RU) in a buffer consisting of 10 mM phosphate pH 7.4, 150 mM NaCl, 0.05% Tween20.
For interaction experiments a multi-cycle experiment approach was used and performed using either a Biacore™ T200 or Biacore™ X100 instrument (GE Healthcare) at 25° C. Peptides were injected in increasing concentration series (5-8 different concentrations) for 60-120 s at a flow rate of 30 μL/min in a buffer consisting of 10 mM Tris buffer at pH 7.4, with 150 mM NaCl and 0.05% Tween20. This was followed by a dissociation period for up to 10 min. The C3 surface was regenerated between runs by a 45 s injection of 3 M MgCl₂.
Sensorgrams were double-referenced (reference surface, blanks) prior to analysis of the kinetic profiles by globally fitting data to a 1:1 Langmuir binding model to obtain association and dissociation rates for calculation of the equilibrium dissociation constant Kd. Each peptide was tested at in at least 2 independent experiments.

Human C3 [6] = molecular target: T1, Human C3; assay: cell-based or functional assay; remark: listed apart in the source
Human C3 [7] = molecular target: T1, Human C3; assay: cell-based or functional assay; remark: listed apart in the source

In the case of `CC[C@H](C)[C@@H]1NC(=O)[C@@H](NC(=O)[C@H](Cc2ccc(O)cc2)NC(=O)[C@H](C)NC(=O)[C@H](CO)NC(=O)CNC(=O)[C@H](CCC(=O)O)NC(C)=O)CSSC[C@@H](C(=O)N(C)CC(=O)N[C@@H](CCC(=O)O)C(N)=O)NC(=O)[C@H](CCCNC(=N)N)NC(=O)[C@H](Cc2c[nH]cn2)NC(=O)[C@H](CCC(=O)O)NC(=O)CNC(=O)[C@H](Cc2c[nH]c3ccccc23)NC(=O)[C@H](CC(=O)O)NC(=O)[C@H](CCC(N)=O)NC(=O)[C@H](Cc2cn(C)c3ccccc23)NC1=O` [Compound 54] (Ac-EGSAYCI[Trp(1-Me)]QDWGEHRC[Sar]E-NH2; disulfide 6-16), the half-life (in vivo) is reported as 9.71 h, the “Solubility, Condition 1 Acetate pH 4” value ([1]; 10 mg/mL compound in 100 mM acetate pH 4) is reported as “− (denotes lack of solubility at the given condition, as UV absorbance at 340 nm exceeds 0.1 AU and/or it is visibly turbid or contains particles.)” and the “Solubility, Condition 2 Acetate pH 5” value ([1]; 10 mg/mL compound in 100 mM acetate pH 5) is reported as “− (denotes lack of solubility at the given condition, as UV absorbance at 340 nm exceeds 0.1 AU and/or it is visibly turbid or contains particles.)”. For the same molecule, the “Solubility, Condition 3 Phosphate pH 6” value ([1]; 10 mg/mL compound in 100 mM phosphate pH 6) was “+ (denotes solubility at the given condition, as determined by UV absorbance being less than 0.1 AU at 340 nm and the sample being clear when manually inspected.)”, the “Solubility, Condition 4 Phosphate pH 7” value ([1]; 10 mg/mL compound in 100 mM phosphate pH 7) was “+ (denotes solubility at the given condition, as determined by UV absorbance being less than 0.1 AU at 340 nm and the sample being clear when manually inspected.)” and the “Solubility, Condition 5 Phosphate pH 7.5” value ([1]; 10 mg/mL compound in 100 mM phosphate pH 7.5) was “+ (denotes solubility at the given condition, as determined by UV absorbance being less than 0.1 AU at 340 nm and the sample being clear when manually inspected.)”. For the same molecule, the IC50 [2] was less than 100 nM and the “Duration of pharmacological activity (alternative complement pathway activity) in vivo” value [3] was “relatively short duration of action”.

In the case of `CC[C@H](C)[C@H](NC(=O)[C@H](N)Cc1ccc(O)cc1)C(=O)N[C@H]1CSSC[C@@H](C(=O)N(C)[C@H](C(N)=O)[C@@H](C)CC)NC(=O)[C@H](CCCNC(=N)N)NC(=O)[C@H](Cc2c[nH]cn2)NC(=O)[C@H](C)NC(=O)CN(C)C(=O)[C@H](Cc2c[nH]c3ccccc23)NC(=O)[C@H](CC(=O)O)NC(=O)[C@H](CCC(N)=O)NC(=O)[C@H](Cc2cn(C)c3ccccc23)NC(=O)[C@H](C(C)C)NC1=O` [Cp40, H-{d}YIC(1)V[1-Me-Trp]QDW[Sar]AHRC(1)[N-Me-Ile]-NH2, reference compound], the half-life (in vivo) is reported as 31.8 h, the IC50 [2] is reported as less than 100 nM and the “Duration of pharmacological activity (alternative complement pathway activity) in vivo” value [3] is reported as “relatively short duration of action”.

B1: Compound D (peptide)
peptide: Ac-ICVWQDWGEHRCTGAES-NH2
modifications: disulfide 2-12
SMILES: CC[C@H](C)[C@H](NC(C)=O)C(=O)N[C@H]1CSSC[C@@H](C(=O)N[C@H](C(=O)NCC(=O)N[C@@H](C)C(=O)N[C@@H](CCC(=O)O)C(=O)N[C@@H](CO)C(N)=O)[C@@H](C)O)NC(=O)[C@H](CCCNC(=N)N)NC(=O)[C@H](Cc2c[nH]cn2)NC(=O)[C@H](CCC(=O)O)NC(=O)CNC(=O)[C@H](Cc2c[nH]c3ccccc23)NC(=O)[C@H](CC(=O)O)NC(=O)[C@H](CCC(N)=O)NC(=O)[C@H](Cc2c[nH]c3ccccc23)NC(=O)[C@H](C(C)C)NC1=O
With B1 the “CP hemolysis IC50” value (Human C3 [4]) was 210 nM and the Kd (Human C3 [5]) was 230 nM.

For Ac-IC[β3hI]WQDWGEHRCT-NH2 (disulfide 2-12) [Ac-IC(1)XWQDWGEHRC(1)T-NH2 with Beta-Homo-Isoleucine at position 3], the “IC50, CP hemolysis” value (Human C3 [6]) was greater than 10000 nM.

B2: Ac-IC(1)XWQDWGEHRC(1)T-NH2 with Norleucine at position 3 (peptide)
peptide: Ac-IC[Nle]WQDWGEHRCT-NH2
modifications: disulfide 2-12
SMILES: CCCC[C@@H]1NC(=O)[C@@H](NC(=O)[C@@H](NC(C)=O)[C@@H](C)CC)CSSC[C@@H](C(=O)N[C@H](C(N)=O)[C@@H](C)O)NC(=O)[C@H](CCCNC(=N)N)NC(=O)[C@H](Cc2c[nH]cn2)NC(=O)[C@H](CCC(=O)O)NC(=O)CNC(=O)[C@H](Cc2c[nH]c3ccccc23)NC(=O)[C@H](CC(=O)O)NC(=O)[C@H](CCC(N)=O)NC(=O)[C@H](Cc2c[nH]c3ccccc23)NC1=O
With B2 the “IC50, CP hemolysis” value (Human C3 [6]) was 480 nM.

B3: Compound 2 (peptide)
peptide: Ac-ICIWQDWGEHRCT-NH2
modifications: disulfide 2-12
SMILES: CC[C@H](C)[C@H](NC(C)=O)C(=O)N[C@H]1CSSC[C@@H](C(=O)N[C@H](C(N)=O)[C@@H](C)O)NC(=O)[C@H](CCCNC(=N)N)NC(=O)[C@H](Cc2c[nH]cn2)NC(=O)[C@H](CCC(=O)O)NC(=O)CNC(=O)[C@H](Cc2c[nH]c3ccccc23)NC(=O)[C@H](CC(=O)O)NC(=O)[C@H](CCC(N)=O)NC(=O)[C@H](Cc2c[nH]c3ccccc23)NC(=O)[C@H]([C@@H](C)CC)NC1=O
For B3, the “IC50[nM], inhibition of hemolysis” value (Human C3 [7]) was less than 100 nM, the “IC50, CP hemolysis” value (Human C3 [6]) was less than 100 nM and the “CP hemolysis IC50” value (Human C3 [4]) was 94 nM.

B4: Compound G (peptide)
peptide: Ac-ICVWQDWGEHRCS-NH2
modifications: disulfide 2-12
SMILES: CC[C@H](C)[C@H](NC(C)=O)C(=O)N[C@H]1CSSC[C@@H](C(=O)N[C@@H](CO)C(N)=O)NC(=O)[C@H](CCCNC(=N)N)NC(=O)[C@H](Cc2c[nH]cn2)NC(=O)[C@H](CCC(=O)O)NC(=O)CNC(=O)[C@H](Cc2c[nH]c3ccccc23)NC(=O)[C@H](CC(=O)O)NC(=O)[C@H](CCC(N)=O)NC(=O)[C@H](Cc2c[nH]c3ccccc23)NC(=O)[C@H](C(C)C)NC1=O
With B4 the “CP hemolysis IC50” value (Human C3 [4]) was 180 nM and the Kd (Human C3 [5]) was 160 nM.

B5: Compound A (peptide)
peptide: Ac-ICVWQDWGEHRCT-NH2
modifications: disulfide 2-12
SMILES: CC[C@H](C)[C@H](NC(C)=O)C(=O)N[C@H]1CSSC[C@@H](C(=O)N[C@H](C(N)=O)[C@@H](C)O)NC(=O)[C@H](CCCNC(=N)N)NC(=O)[C@H](Cc2c[nH]cn2)NC(=O)[C@H](CCC(=O)O)NC(=O)CNC(=O)[C@H](Cc2c[nH]c3ccccc23)NC(=O)[C@H](CC(=O)O)NC(=O)[C@H](CCC(N)=O)NC(=O)[C@H](Cc2c[nH]c3ccccc23)NC(=O)[C@H](C(C)C)NC1=O
With B5 the “IC50, CP hemolysis” value (Human C3 [6]) was 350 nM, the “CP hemolysis IC50” value (Human C3 [4]) was 350 nM and the Kd (Human C3 [5]) was 130 nM.
